# Reference: US8192734B2, “Compositions and methods for bone strengthening” (Cornell University, priority 2007, dated 2012)
# Marks after values point to notes of the source that are not given here.
# How the values were obtained:
# Type in all cases: in vivo, pig
# [1] = test system: pigs fed P-adequate corn-soybean meal basal diet; assay: Expt 2: metatarsal and femur breaking strength, three-point bending test; conditions: main effect, phytase 2,000 U/kg or Sr 50 mg/kg
# Experimental: Third and 4th metatarsals in both experiments and femur (right leg) in Experiment 2 were prepared by manually removing surrounding skin, muscle and other tissues. Bones were stored in closed plastic bags at 4° C. until strength analysis. Maximal breaking load was measured using an Instron 4500 Machine (Canton, Mass.) at room temperature (23° C.) by subjecting each bone to a three-point bending test^(28). During mechanical tests, force was applied to the center of the bone held by supports 2.0 cm apart for metatarsals and 3.3 cm apart for femur. The crosshead speed was set at 50 mm/min and the sample rate was 10 points/s. Final strength was determined from load-displacement curves indicating the maximum loads. The metatarsal breaking strength was expressed as the mean strength of four bones from both left and right feet of pigs in Experiment 1, and as the mean of the two bones from the right foot of pigs in Experiment 2.
# [2] = test system: weanling pigs fed high P diet; assay: Examples 4-8: radiographic bone density and metacarpal histomorphometry; conditions: 8 wk
# Experimental: (§1) As in Examples 1-3, the animal protocol was approved by Cornell Animal Care and Use Committee. An 8-week feeding trial was conducted at Cornell University Swine Research Farm. Thirty weanling pigs (Yorkshire×Hampshire×Landrace, body weight=8.6±0.5 kg) were allocated into three groups (n=10). […] were fed a corn-soy basal diet (BD)+0.25% inorganic phosphorus (iP, dicalcium phosphate). Group 2 were fed BD+0.35% iP. Group 3 were fed BD+0.35% iP+3,400 units of phytase/kg (Escherichia coli appA2, OptiPhos, JBS United, Inc., Sheridan, Ind.). The BD (Table 7) contained adequate levels of all nutrients except for P^(63), and 0.25% iP is the supplementation level recommended by NRC^(24) to meet the P needs of this age of pigs. […] Pigs were housed in an environmentally-controlled barn (20-25° C.; 12-light: 12-dark cycle), and given free access to feed and water.
# After the skin and major muscles were removed, two left legs were subjected to X-ray radiography using a Faxitron machine (Model 43855A; Hewlett Packard, McMinnville, Oreg., USA). Bone radiographs of femur and metacarpals were quantified by the kodac software. The software counted the total number of pixels. Thereafter, the 3rd and 4th metacarpals and femurs were collected to measure length, weight, height, and width after removing the remaining muscle and connective tissue. After the X-ray analysis, the two left legs were used for bone mechanical and mineral testing. Bone mechanical properties were determined by a three-point bending test (ASAE Standard S459 1992) using an Instron 4500 Machine Universal Testing Instrument (Model 1122, Instron, Canton, Mass.) with Instron Series IX Automated Materials Testing System Software (version 4.05). During testing, force was applied to the center of the bone held by supports 2.0 cm apart for metacarpals and 3.3 cm apart for femurs. The crosshead speed was set at 50 mm/min and the sampling rate was at 10 points/sec. The extrinsic parameters (stiffness/slope, maximum load, energy to break, maximum displacement) were derived from the force-displacement curve. Bone breaking strength was calculated with the adjustment of bone weight, and the average strength of the 3rd and 4th metacarpal was used as the metacarpal strength for each pig.
# Metacarpals (4th) from right foot of pigs (n=5 for each group) were quickly fixed by 10% formalin for histology, decalcified, embedded in paraffin sagittally serially sectioned through the midline (8 μm), and stained with Masson's trichrome as previously described^(74). Variation of bone matrix mineralization was detected by modified tetrachrome method^(75). Sulfated proteoglycans were detected by alcian blue staining^(76) and counter staining with Mayer's acid haematoxylin. PCI software—CIMAGING System (Model 1280, Compix Inc., Cranberry, Pa.)—was applied to measure bone surface, osteoid, bone volume, trabecular thickness, number, and separation, and proteoglycans surface. Trabecular size and separation distances were measured by the software measurement scale. Trabecular numbers were counted within a specified field. For proteoglycans measurement, the total area of trabecular bone was first captured to define the region of interest (ROI). Then, within the ROI the blue color area of proteoglycans was captured and its area measured to define the object area. For osteoid measurement, the first cortical bone surface was the object. The area fraction of the deep green in the periosteal area was expressed as: Area fraction (%)=Object area/Region of interest (ROI)×100.
# [3] = test system: weanling pigs fed high P diet; assay: Examples 4-8: cortical and cancellous bone ash and mineral profile; conditions: 8 wk
# Experimental: as §1
# After the above mechanical tests, midshaft sections of both femur and metacarpus were cut and washed with de-ionized water. The cortical thickness of both bones was measured by slide caliper in the midshaft. Cortical and cancellous bones were separated for total ash and mineral analysis. A 3-cm long and 3-mm thick midshaft of femur and 1-cm long and 1.5-mm thick midshaft of metacarpus were used for cortical ash analysis. For cancellous bone, sponge-like bone from 3-cm below the growth plate of femur and 1.5-cm below the growth plate of metacarpus were collected. For ash analysis, bones were oven-dried at 110° C. for 24 h, and incinerated in a muffle furnace at 550° C. for 96 h. Concentrations of individual elements in the ash were measured using inductively coupled argon plasma spectrophotometer (ICAP 61E Trace Analyzer, Thermo Jarell Ash corporation, Franklin, Mass.)^(63), and were expressed on ash basis.
# [4] = 0.35% iP + Sr 50 mg/kg + phytase 3,400 U/kg, P<0.001
# [5] = phytase 3,400 U/kg into the 0.35% iP diet, P<0.001
# [6] = phytase 3,400 U/kg into the 0.35% iP diet, P<0.05
# [7] = 0.35% iP + Sr 50 mg/kg + phytase 3,400 U/kg, P<0.01
molecule,measurement,setting,value
"Phytase: Escherichia coli AppA2 phytase (OptiPhos, JBS United, Inc.), added to diets at feed mixing; AppA2 is SEQ ID NO: 2 (protein, listed as Escherichia coli) MKAILIPFLSLLIPLTPQSAFAQSEPELKLESVVIVSRHGVRAPTKATQLMQDVTPDAWPTWPVKLGWLTPRGGELIAYLGHYQRQRLVADGLLAKKGCPQPGQVAIIADVDERTRKTGEAFAAGLAPDCAITVHTQADTSSPDPLFNPLKTGVCQLDNANVTDAILSRAGGSIADFTGHRQTAFRELERVLNFSQLNLCLNREKQDESCSLTQALPSELKVSADNVSLTGAVSLASMLTEIFLLQQAQGMPEPGWGRITDSHQWNTLLSLHNAQFYLLQRTPEVARSRATPLLDLIMAALTPHPPQKQAYGVTLPTSVLFIAGHDTNLANLGGALELNWTLPGQPDNTPPGGELVFERWRRLSDNSQWIQVSLVFQTLQQMRDKTPLSLNTPPGEVKLTLAGCEERNAQGMCSLAGFTQIVNEARIPACSL",improvement in breaking strength of femur,[1],20%
same,improvement in breaking strength of metatarsals,[1],16%
same,improvement of femur bone density (radiograph image pixel numbers) vs 0.35% iP,[2]; [4],28%
same,improvement of metacarpus bone density (radiograph image pixel numbers) vs 0.35% iP,[2]; [4],20%
same,increase in metacarpal bone volume vs 0.35% iP,[2]; [4],38%
same,enhancement of osteoid thickness in the periosteal area,[2]; [5],60%
same,increase of sulfated proteoglycans in cancellous bone,[2]; [5],18%
same,"decrease in trabecular separation, metacarpal bone",[2]; [6],37%
same,"increase in trabecular density, metacarpal bone",[2]; [6],42%
same,"increase in trabecular thickness, metacarpal bone",[2]; [6],51%
same,"decrease of P concentration in cancellous bones, femur and metacarpus","[3]; 0.35% iP + Sr 50 mg/kg + phytase 3,400 U/kg",22 to 31%
same,"elevation of Sr concentration in cancellous bone, metacarpus","[3]; 0.35% iP + Sr 50 mg/kg + phytase 3,400 U/kg, P<0.002",115 fold
same,enhancement of cancellous bone ash of femur,[3]; [7],12%
same,enhancement of cancellous bone ash of metacarpus,[3]; [7],5%
same,"increase of total ash concentration of cortical bone, metacarpals",[3]; [7],3%
same,"increase in Fe concentration of cancellous bone, femur","[3]; 0.35% iP + Sr 50 mg/kg + phytase 3,400 U/kg, P<0.05",33%
same,Femur cancellous bone Ca,"[3]; 0.35% iP + phytase 3400 U, n=5",311.0^b g/Kg ash
same,Femur cancellous bone Cr,"[3]; 0.35% iP + phytase 3400 U, n=5",10.0 mg/kg ash
same,Femur cancellous bone Fe,"[3]; 0.35% iP + phytase 3400 U, n=5",75.6^a mg/kg ash
same,Femur cancellous bone Mg,"[3]; 0.35% iP + phytase 3400 U, n=5",6.0^b g/Kg ash
same,Femur cancellous bone Na,"[3]; 0.35% iP + phytase 3400 U, n=5",8.3^b g/Kg ash
same,Femur cancellous bone P,"[3]; 0.35% iP + phytase 3400 U, n=5",155.0^b g/Kg ash
same,Femur cancellous bone S,"[3]; 0.35% iP + phytase 3400 U, n=5",1833.2^b mg/kg ash
same,Femur cancellous bone Sr,"[3]; 0.35% iP + phytase 3400 U, n=5",93680.7^a mg/kg ash
same,Femur cancellous bone Zn,"[3]; 0.35% iP + phytase 3400 U, n=5",395.7^a mg/kg ash
same,Femur compact bone Ca,"[3]; 0.35% iP + phytase 3400 U, n=5",403.0 g/Kg ash
same,Femur compact bone Cr,"[3]; 0.35% iP + phytase 3400 U, n=5",12.6 mg/kg ash
same,Femur compact bone Fe,"[3]; 0.35% iP + phytase 3400 U, n=5",25.1 mg/kg ash
same,Femur compact bone Mg,"[3]; 0.35% iP + phytase 3400 U, n=5",7.6 g/Kg ash
same,Femur compact bone Na,"[3]; 0.35% iP + phytase 3400 U, n=5",9.4 g/Kg ash
same,Femur compact bone P,"[3]; 0.35% iP + phytase 3400 U, n=5",199.0 g/Kg ash
same,Femur compact bone S,"[3]; 0.35% iP + phytase 3400 U, n=5",649.9^b mg/kg ash
same,Femur compact bone Sr,"[3]; 0.35% iP + phytase 3400 U, n=5",568.8^b mg/kg ash
same,Femur compact bone Zn,"[3]; 0.35% iP + phytase 3400 U, n=5",278.8 mg/kg ash
same,Metacarpus cancellous bone Ca,"[3]; 0.35% iP + phytase 3400 U, n=5",329.0^b g/kg ash
same,Metacarpus cancellous bone Cr,"[3]; 0.35% iP + phytase 3400 U, n=5",10.7 mg/kg ash
same,Metacarpus cancellous bone Fe,"[3]; 0.35% iP + phytase 3400 U, n=5",66.4^a mg/kg ash
same,Metacarpus cancellous bone Mg,"[3]; 0.35% iP + phytase 3400 U, n=5",6.0 g/kg ash
same,Metacarpus cancellous bone Na,"[3]; 0.35% iP + phytase 3400 U, n=5",7.6^b g/kg ash
same,Metacarpus cancellous bone P,"[3]; 0.35% iP + phytase 3400 U, n=5",161.0^b g/kg ash
same,Metacarpus cancellous bone S,"[3]; 0.35% iP + phytase 3400 U, n=5",1334.5^b mg/kg ash
same,Metacarpus cancellous bone Sr,"[3]; 0.35% iP + phytase 3400 U, n=5",86221.0^a mg/kg ash
same,Metacarpus cancellous bone Zn,"[3]; 0.35% iP + phytase 3400 U, n=5",334.3 mg/kg ash
same,Metacarpus compact bone Ca,"[3]; 0.35% iP + phytase 3400 U, n=5",398.0 g/Kg ash
same,Metacarpus compact bone Cr,"[3]; 0.35% iP + phytase 3400 U, n=5",13.3 mg/kg ash
same,Metacarpus compact bone Fe,"[3]; 0.35% iP + phytase 3400 U, n=5",24.7 mg/kg ash
same,Metacarpus compact bone Mg,"[3]; 0.35% iP + phytase 3400 U, n=5",7.2 g/Kg ash
same,Metacarpus compact bone Na,"[3]; 0.35% iP + phytase 3400 U, n=5",8.6 g/Kg ash
same,Metacarpus compact bone P,"[3]; 0.35% iP + phytase 3400 U, n=5",195.0 g/Kg ash
same,Metacarpus compact bone S,"[3]; 0.35% iP + phytase 3400 U, n=5",763.8^b mg/kg ash
same,Metacarpus compact bone Sr,"[3]; 0.35% iP + phytase 3400 U, n=5",541.4^b mg/kg ash
same,Metacarpus compact bone Zn,"[3]; 0.35% iP + phytase 3400 U, n=5",307.7 mg/kg ash
same,increases in Sr concentration in cancellous bones of femur and metacarpus vs 0.35% iP,"[3]; phytase 3,400 U/kg into the 0.35% iP diet",> 100 fold
